The values below come from patent US10434074B2, “Peptide and small molecule agonists of EPHA and uses thereof” (CASE WESTERN RESERVE UNIVERSITY, priority 2004, dated 2019).

Assay [1] concerns the target EphA2 (Homo sapiens, UniProt P29317). Kind of assay: EphA2 activation and ERK status in DU-145 cells. Also on record: endogenous in cells; host or cells: DU-145 cells. The class given is cell-based. As to the method: FIGS. 1(A-D) illustrate (A) EphA2 is the primary EphA kinase expressed on human prostate cancer cells. Cell surface proteins were labeled with membrane impermeable biotin (Method). Top panel: Saturating amount of ephrin-A1-Fc (EA1-Fc) was used to precipitate most EphA kinases. Lower panel: EphA2 was first immunodepleted from cell lysates with an EphA2-specific antibody. Saturating amount of ephrin-A1-Fc was then added to the EphA2-depleted cell lysates to precipitate other members of EphA kinases. The precipitates were subject immunoblot with HRP-labeled avidin. (B) Expression of EphA2, but not other EphA kinases and ephrin-As, is elevated in cell lines derived from more malignant prostate cancer. Total cellular proteins were immunoblotted with the indicated antibodies. (C) Immunofluorescence staining of EphA2. Human prostate cancer cells grown on cover slip were stained with anti-EphA2 antibody. Texas-Red labeled secondary was used to visualize the bound primary antibody. […] To determine the ERK activation status, total cell lysates were analyzed by immunoblot using anti-phospho ERK (p-ERK) antibody. […]
Cells cultured in 6 well plates at 70-80% confluence were stimulated with 0.5 μg/ml Fc, 1 μg/ml epnrinA1-Fc or 20 ng/ml HGF/SF or their combinations as indicated. […] For quantitative analysis, band densities were measured using KODAK 1D imagine analysis software (Eastman Kodak Company).

Assay [2] concerns DU-145 cells. Kind of assay: Modified Boyden chamber cell migration assay. The class given is cell-based, human. As to the method: FIGS. 2(A-E) illustrate EphA activation inhibited DU-145 cell migration. (A) Expression of c-Met is elevated in cell lines derived from more malignant prostate cancer. Total cellular proteins were immunoblotted with anti-human c-Met. An anti-tubulin blot was used as a control for protein loading. (B) In a modified Boyden chamber assay, DU-145 cells were placed in the upper chamber and allowed to migrate to the lower chamber containing indicated reagents. After 8 hours, cells were stained with crystal violet and cells remaining in the upper chamber were removed. Top panel: Cells migrated to the undersides of membrane were counted; six high power fields were counted. Results represent means±S.D. Representative fields were shown in the lower panel. (C) Ephrin-A1-Fc inhibits DU-145 cell migration when HGF/SF was uniformly presented in both sides of membranes. The experiment was carried out as described in A. (D) Inhibition of cell scattering by immobilized ephrin-A1 in a SOIL assay (Method). Ephrin-A1-Fc or control Fc was immobilized on 6-well culture dishes. Freshly confluent DU-145 cells on cover slips were transferred to the coated surfaces. Cells were stimulated with HGF/SF to induce migration off the cover slips to immobilized Fc or ephrin-A1-Fc. After 48 hours, cells were fixed and stained with crystal violet. The cells that had migrated to the coated surface were photographed after removing cover slips. (E) DU-145 cells were grown to confluency and a wound was generated by scratching monolayer with a 200 μl pipette tip. The wound healing was recorded prior to and 12 hours after the addition of Fc, ephrin-A1-Fc (1 μg/ml) and/or HGF/SF (20 ng/ml). Representative results from 3 independent experiments are shown.
Modified Boyden chambers of 8 μm pore size (Costar) were used for migration assay. Both sides of the membranes were coated with 10 μg/ml collagen at 4° C. overnight. […] Cells migrated to the underside of the membrane were counted under 200× magnification.

The test system of assay [3] is DU-145 cells. The experiment in a line: MatriGel invasion assay. The settings on record: 24 hours. It counts as cell-based, human. On the procedure: FIG. 3 illustrates EphA activation inhibited DU-145 cell invasion. DU-145 cells were placed in the upper chamber of MatriGel-coated Transwell. Fc, ephrin-A1-Fc, HGF/SF/Fc or HGF/SF/ephrin-A1-Fc, were added in the lower chamber. After 24 hours, cells invading through MatriGel and migrated to the undersides of membrane were counted. Representative results (mean±S.D.) from three independent experiments are shown.
For invasion assay, the upper chamber was coated with 50 μg of growth factor-reduced MatriGel (BD) according to manufacturer's instructions. The same procedure as in migration assay was followed, except that the cells were allowed 24 hours to migrate to the underside of the membranes.

For assay [4], the system named is Akt and ERK. Kind of assay: Akt and ERK activities in DU145 cells expressing WT or dominant negative EphA2. The class given is cell-based, human. To be noted: DU145 with dominant negative EphA2. An excerpt: FIGS. 46(A-D) illustrate A) EphA2 is overexpressed in osseous but not lymph node metastases of human prostate cancer specimens obtained from rapid autopsy. […] DU145 cells were infected with a retroviral vector expressing wild type (WT) or a dominant negative mutant EphA2 where the entire cytoplasmic tail was replaced with GFP. An antibody against the ectodomain of EphA2 was used to determine the expression of endogenous (vector control), WT- and DN-EphA2. D) Upregulation of EphA2 by Ras but not Myc oncogene in NRP152 normal rat prostate epithelial cells.
We observed that EphA2 is overexpressed in osseous but not lymph node metastases of human prostate cancer specimens obtained from rapid autopsy (FIG. 46A). […] DU145 cells were infected with a retroviral vector expressing wild type (WT) or a dominant negative mutant EphA2 where the entire cytoplasmic tail was replaced with GFP. An antibody against the ectodomain of EphA2 was used to determine the expression of endogenous (vector control), WT- and DN-EphA2 (FIG. 46C). We further observed upregulation of EphA2 by Ras but not Myc oncogene in NRP152 normal rat prostate epithelial cells (FIG. 46D).

Chain of EphA2 (P29317 24-976): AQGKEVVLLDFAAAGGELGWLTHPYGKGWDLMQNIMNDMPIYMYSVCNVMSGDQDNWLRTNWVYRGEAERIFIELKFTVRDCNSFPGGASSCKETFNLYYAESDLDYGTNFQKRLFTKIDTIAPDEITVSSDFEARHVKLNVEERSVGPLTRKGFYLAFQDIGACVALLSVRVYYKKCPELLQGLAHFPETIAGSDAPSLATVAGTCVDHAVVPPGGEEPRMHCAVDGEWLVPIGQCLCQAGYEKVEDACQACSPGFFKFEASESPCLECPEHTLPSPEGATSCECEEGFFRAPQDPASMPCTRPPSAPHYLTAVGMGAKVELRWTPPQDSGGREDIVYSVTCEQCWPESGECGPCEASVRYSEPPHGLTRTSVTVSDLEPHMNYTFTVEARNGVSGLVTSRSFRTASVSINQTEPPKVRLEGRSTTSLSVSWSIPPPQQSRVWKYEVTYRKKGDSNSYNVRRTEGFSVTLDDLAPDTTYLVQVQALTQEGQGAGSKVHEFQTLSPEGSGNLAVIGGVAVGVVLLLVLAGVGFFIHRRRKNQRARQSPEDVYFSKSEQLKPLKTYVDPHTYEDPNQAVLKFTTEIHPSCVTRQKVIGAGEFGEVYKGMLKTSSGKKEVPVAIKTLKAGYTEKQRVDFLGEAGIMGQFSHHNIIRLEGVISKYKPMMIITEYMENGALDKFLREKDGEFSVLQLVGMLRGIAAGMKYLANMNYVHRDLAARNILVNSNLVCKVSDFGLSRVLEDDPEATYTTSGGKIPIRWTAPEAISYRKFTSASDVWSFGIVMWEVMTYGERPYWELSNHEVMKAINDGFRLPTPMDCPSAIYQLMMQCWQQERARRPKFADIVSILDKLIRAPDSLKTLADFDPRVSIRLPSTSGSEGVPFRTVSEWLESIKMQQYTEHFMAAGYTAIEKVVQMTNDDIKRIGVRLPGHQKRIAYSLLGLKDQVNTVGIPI

B1: ephrin-A1-Fc: ephrin-A1 dimerized by fusion to the heavy chain of human IgG1 (protein)
chain: DRHTVFWNSSNPKFRNEDYTIHVQLNDYVDIICPHYEDHSVADAAMEQYILYLVEHEEYQLCQPQSKDQVRWQCNRPSAKHGPEKLSEKFQRFTPFTLGKEFKEGHSYYYISKPIHQHEDRCLRLKVTVSGKITHSPQAHDNPQEKRLAADDPEVRVLHSIGHS
modifications: left off: a dimerising Fc or GST
notes: ephrin-A1 dimerized by fusion to the heavy chain of human IgG1
With B1, in assay [1], the ERK1/2 activity result is reported as “reduced” and the “EphA2 activation, time course” value was “readily occurred in two minutes”. Also, in assay [2] (HGF/SF both sides, ligand in lower chamber only), the “cell migration with HGF/SF on both sides” value is “significantly reduced the number of cells migrated”. The HGF/SF-stimulated cell migration result in assay [2] (HGF/SF in lower chamber) was “potently inhibited”. Also, the basal cell migration result in assay [2] (lower chamber, 1 μg/ml, 8 hours, vs Fc) is recorded as “reduced the basal level of cell migration”. In addition, in assay [3], the HGF/SF-induced cell invasion entry was “significantly reduced” and the basal cell invasion result was “marginally reduced the basal cell invasion”. In addition, the “Akt and ERK activities” value in assay [4] is “abolished the inhibitory effects”.
